{"source": "patent US20150139982A1", "about": "(ALETHIA BIOTHERAPEUTICS, published 2015)", "key": {"[1]": {"molecular_target": "T1, human Siglec-15 (human, UniProt Q6ZMC9 20-328)", "T1 construct": "also called h-Siglec-15; CD33L3", "T1 sequence": "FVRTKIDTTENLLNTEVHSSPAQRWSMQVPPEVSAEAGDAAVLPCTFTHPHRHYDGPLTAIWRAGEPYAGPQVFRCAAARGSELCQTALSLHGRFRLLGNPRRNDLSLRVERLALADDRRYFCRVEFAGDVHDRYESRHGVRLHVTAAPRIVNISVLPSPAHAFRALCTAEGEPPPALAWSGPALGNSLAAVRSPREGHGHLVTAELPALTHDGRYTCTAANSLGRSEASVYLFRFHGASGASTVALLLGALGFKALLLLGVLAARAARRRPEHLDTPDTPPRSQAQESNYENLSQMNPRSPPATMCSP", "experiment": "flow cytometry on 293-6E cells transfected with human Siglec-15", "experimental": "(§1) We tested the ability of the humanized antibodies to interact with human Siglec-15 expressed on the surface of cultured cells. […] Twenty-four hours later, the cells were harvested, counted and 1×10⁵ cells were incubated with increasing concentrations of the humanized IgG1 variant of 25E9 for 1 hour at 4 C. Following a washing step with cold PBS, bound 25E9 was detected with an anti-human kappa light chain IgG conjugated to FITC. Fluorescently labeled cells were injected into a flow cytometer to measure the fluorescence signal on the surface of intact cells. […] The average KD was in the low nanomolar range. Furthermore, the binding parameters were very similar in the presence of the humanized 25E9 L1H1 IgG1 variant produced in either CHO cells or 293 cells. […] Similar results were obtained with other 25E9 humanized IgG1 antibody variants (the L1H2 IgG1, the L1H3 IgG1, the L1H4 IgG1 and, the L1H1 IgG2) or with the humanized 25D8 IgG2 antibody."}, "[2]": {"molecular_target": "T1, human Siglec-15", "experiment": "flow cytometry on 293-6E cells transfected with human Siglec-15 cDNA", "source_text": "The average KD was in the low nanomolar range. Furthermore, the binding parameters were very similar in the presence of the humanized 25E9 L1H1 IgG1 variant produced in either CHO cells or 293 cells. […] Similar results were obtained with other 25E9 humanized IgG1 antibody variants (the L1H2 IgG1, the L1H3 IgG1, the L1H4 IgG1 and, the L1H1 IgG2) or with the humanized 25D8 IgG2 antibody.\nExperiments were undertaken to examine the feasibility of targeting Siglec-15-expressing cells with an ADC. The humanized 25E9 L1H1 IgG1 variant was conjugated to a payload that is toxic to proliferating cells as well as non-proliferating or fully differentiated cells, in particular osteoclasts. The humanized 25E9 L1H1 IgG1 conjugated antibody was designated 25E9-ADC. Since the conjugation might affect the ability of 25E9 to interact with native Siglec-15, flow cytometry was conducted to measure the binding of the 25E9-ADC to Siglec-15 expressing cells."}, "[3]": {"molecular_target": "T2, Fc-Siglec-15 fusion protein (Homo sapiens (Human), UniProt Q6ZMC9 20-259, limits assumed)", "T2 construct": "also called recombinant Siglec-15; purified Fc-Siglec-15; not shown: Fc region", "T2 sequence": "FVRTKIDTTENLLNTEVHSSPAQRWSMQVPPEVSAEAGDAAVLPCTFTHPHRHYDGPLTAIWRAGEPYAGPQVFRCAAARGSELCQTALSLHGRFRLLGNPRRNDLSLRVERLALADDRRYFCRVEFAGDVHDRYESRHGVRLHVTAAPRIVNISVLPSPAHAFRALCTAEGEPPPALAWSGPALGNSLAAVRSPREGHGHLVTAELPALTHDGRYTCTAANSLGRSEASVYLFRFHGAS", "experiment": "SPR, Fc-Siglec-15 immobilized, antibody injected", "experimental": "(§2) FIG. 12. SPR chromatograms illustrating the differences in binding parameters between the humanized 25E9 L1H1 IgG1 (left panel) and the humanized 25E9 L1H1 IgG2 (right panel). Purified Fc-Siglec-15 was immobilized (150RU) and humanized 25E9 was injected at the indicated concentrations (100 nM, 33.3 nM, 11.1 nM, 3.70 nM and 1.23 nM). The curves were fit with a 1:1 ratio.\n(§3) More particularly, we compared the binding activity of the humanized 25E9 L1H1 IgG1 (the L1H1 IgG1 variant) with the humanized 25E9 L1H1 IgG2 (the L1H1 IgG2 variant) using SPR. The analysis was conducted using methods similar to what was described above (see Example 6). In this instance, Fc-Siglec-15 was immobilized on the chip and decreasing concentrations of the 25E9 antibody variants were injected (100 nM, 33.3 nM, 11.1 nM, 3.70 nM and 1.23 nM). […] The difference in binding was mostly contributed by a slower off-rate (kd) of the IgG1 compared to the IgG2."}, "[4]": {"molecular_target": "T1, human Siglec-15", "experiment": "cell-based or functional assay"}, "[5]": {"molecular_target": "T2, Fc-Siglec-15 fusion protein", "experiment": "SPR, Fc-Siglec-15 immobilized (150 RU), antibody injected at 100, 33.3, 11.1, 3.70 and 1.23 nM, 1:1 fit", "experimental": "as §2, §3"}, "[6]": {"molecular_target": "T2, Fc-Siglec-15 fusion protein", "experiment": "SPR, Fc-Siglec-15 immobilized, antibody injected at 100 to 1.23 nM, 1:1 fit", "experimental": "as §2, §3"}, "[7]": {"molecular_target": "T1, human Siglec-15", "experiment": "flow cytometry titration (0 to 4 µg/ml) on 293-6E cells transfected with human Siglec-15, detected with FITC anti-human kappa light chain; antibody made in 293 cells", "experimental": "as §1"}, "[8]": {"molecular_target": "T1, human Siglec-15", "experiment": "flow cytometry titration (0 to 4 µg/ml) on 293-6E cells transfected with human Siglec-15, detected with FITC anti-human kappa light chain; antibody made in CHO cells", "experimental": "as §1"}}, "data": [{"binder": "humanized 25E9 L1H2 IgG1 (antibody, V domains shown, The residue ranges are those stated in CLM-00047 (item b)) VH: EIQLQQSGAEVKKPGSSVKVSCKASGYTFTDYDMHWVRQAPGQGLEWIGTIDPETGGTAYNQKFKGRATLTADRSTSTAYMELSSLRSEDTAVYYCTSFYYTYSNYDVGFAYWGQGTLVTVSS VL: DIVMTQSPLSLPVTPGEPASISCRSTKSLLHSNGNTYLYWYLQKPGQSPQLLIYRMSNLASGVPDRFSGSGSGTDFTLKISRVEAEDVGVYYCMQHLEYPFTFGGGTKVEIKR", "values": [{"measurement": "binding result", "setting": "[1]", "result": "binds"}]}, {"binder": "25E9-ADC (humanized 25E9 L1H1 IgG1 conjugated antibody) (antibody, conjugated to a toxic payload; payload, linker and attachment residues not stated) light: DIVMTQSPLSLPVTPGEPASISCRSTKSLLHSNGNTYLYWYLQKPGQSPQLLIYRMSNLASGVPDRFSGSGSGTDFTLKISRVEAEDVGVYYCMQHLEYPFTFGGGTKVEIKRTVAAPSVFIFPPSDEQLKSGTASVVCLLNNFYPREAKVQWKVDNALQSGNSQESVTEQDSKDSTYSLSSTLTLSKADYEKHKVYACEVTHQGLSSPVTKSFNRGEC heavy: not shown", "values": [{"measurement": "EC50 (read off the curve)", "setting": "[2]", "result": "~0.2", "unit": "µg/mL"}]}, {"binder": "humanized 25E9 L1H1 IgG1 variant (antibody, Full-length human kappa / human IgG1; Produced in CHO or 293 cells; also called humanized IgG1 variant of 25E9; unconjugated 25E9) light: DIVMTQSPLSLPVTPGEPASISCRSTKSLLHSNGNTYLYWYLQKPGQSPQLLIYRMSNLASGVPDRFSGSGSGTDFTLKISRVEAEDVGVYYCMQHLEYPFTFGGGTKVEIKRTVAAPSVFIFPPSDEQLKSGTASVVCLLNNFYPREAKVQWKVDNALQSGNSQESVTEQDSKDSTYSLSSTLTLSKADYEKHKVYACEVTHQGLSSPVTKSFNRGEC heavy: not shown", "values": [{"measurement": "fold higher affinity than the humanized 25E9 L1H1 IgG2 variant", "setting": "[3]", "result": "~10", "unit": "fold"}, {"measurement": "fold difference in potency against the humanized 25E9 L1H1 IgG2 variant (osteoclast differentiation)", "setting": "[4]", "result": "~100", "unit": "fold"}, {"measurement": "koff", "setting": "[5]", "result": 0.000151, "unit": "s⁻¹"}, {"measurement": "kon", "setting": "[5]", "result": 921000, "unit": "M⁻¹ s⁻¹"}, {"measurement": "Kd", "setting": "[6]", "result": 0.164, "unit": "nM"}, {"measurement": "EC50 (read off the curve)", "setting": "[2]", "result": "~0.1", "unit": "µg/mL"}, {"measurement": "Kd", "setting": "[7]", "result": 1.9, "unit": "nM"}, {"measurement": "Kd", "setting": "[8]", "result": 5.7, "unit": "nM"}]}, {"binder": "humanized 25E9 L1H3 IgG1 (antibody, V domains shown, The residue ranges are those stated in CLM-00047 (item c)) VH: EIQLQQSGAEVKKPGSSVKVSCKASGYTFTDYDMHWVKQAPGQGLEWIGTIDPETGGTAYNQKFKGKATLTADRSTSTAYMELSSLRSEDTAVYYCTSFYYTYSNYDVGFAYWGQGTLVTVSS VL: DIVMTQSPLSLPVTPGEPASISCRSTKSLLHSNGNTYLYWYLQKPGQSPQLLIYRMSNLASGVPDRFSGSGSGTDFTLKISRVEAEDVGVYYCMQHLEYPFTFGGGTKVEIKR", "values": [{"measurement": "binding result", "setting": "[1]", "result": "binds"}]}, {"binder": "humanized 25E9 L1H4 IgG1 (antibody, V domains shown, The residue ranges are those stated in CLM-00047 (item d)) VH: EIQLQQSGAEVKKPGSSVKVSCKASGYTFTDYDMHWVKQAPGHGLEWIGTIDPETGGTAYNQKFKGKATLTADRSTSTAYMELSSLTSEDTAVYYCTSFYYTYSNYDVGFAYWGQGTLVTVSS VL: DIVMTQSPLSLPVTPGEPASISCRSTKSLLHSNGNTYLYWYLQKPGQSPQLLIYRMSNLASGVPDRFSGSGSGTDFTLKISRVEAEDVGVYYCMQHLEYPFTFGGGTKVEIKR", "values": [{"measurement": "binding result", "setting": "[1]", "result": "binds"}]}, {"binder": "humanized 25E9 L1H1 IgG2 variant (antibody, Full-length human kappa / human IgG2; also called humanized 25E9 IgG2) light: DIVMTQSPLSLPVTPGEPASISCRSTKSLLHSNGNTYLYWYLQKPGQSPQLLIYRMSNLASGVPDRFSGSGSGTDFTLKISRVEAEDVGVYYCMQHLEYPFTFGGGTKVEIKRTVAAPSVFIFPPSDEQLKSGTASVVCLLNNFYPREAKVQWKVDNALQSGNSQESVTEQDSKDSTYSLSSTLTLSKADYEKHKVYACEVTHQGLSSPVTKSFNRGEC heavy: EIQLQQSGAEVKKPGSSVKVSCKASGYTFTDYDMHWVRQAPGQGLEWMGTIDPETGGTAYNQKFKGRVTITADKSTSTAYMELSSLRSEDTAVYYCTSFYYTYSNYDVGFAYWGQGTLVTVSSASTKGPSVFPLAPCSRSTSESTAALGCLVKDYFPEPVTVSWNSGALTSGVHTFPAVLQSSGLYSLSSVVTVPSSNFGTQTYTCNVDHKPSNTKVDKTVERKCCVECPPCPAPPVAGPSVFLFPPKPKDTLMISRTPEVTCVVVDVSHEDPEVQFNWYVDGVEVHNAKTKPREEQFNSTFRVVSVLTVVHQDWLNGKEYKCKVSNKGLPAPIEKTISKTKGQPREPQVYTLPPSREEMTKNQVSLTCLVKGFYPSDIAVEWESNGQPENNYKTTPPMLDSDGSFFLYSKLTVDKSRWQQGNVFSCSVMHEALHNHYTQKSLSLSPGK", "values": [{"measurement": "koff", "setting": "[5]", "result": 0.000655, "unit": "s⁻¹"}, {"measurement": "kon", "setting": "[5]", "result": 520000, "unit": "M⁻¹ s⁻¹"}, {"measurement": "Kd", "setting": "[6]", "result": 1.26, "unit": "nM"}]}, {"binder": "humanized 25D8 IgG2 antibody (antibody, V domains shown, Human kappa / human IgG2; also called humanized full-length IgG2 25D8) VH: QVQLQQSGAEVKKPGSSVKVSCKASGYTFTSYWMHWVRQAPGQGLEWMGLINPSNARTNYNEKFNTRVTITADKSTSTAYMELSSLRSEDTAVYYCARGGDGDYFDYWGQGTTVTVSS VL: DIVMTQTPLSLPVTPGEPASISCRSSKSLLHSNGITYLYWYLQKPGQSPQLLIYQMSNLASGVPDRFSGSGSGTDFTLKISRVEAEDVGVYYCAQNLELPYTFGGGTKVEIKR", "values": [{"measurement": "binding result", "setting": "[1]", "result": "binds"}]}]}
